Test results as given in publication doi:10.1101/2022.10.17.512494.

Target: recombinant VE-cadherin-Fc (UniProt P55284)
Assay: atomic force microscopy

- binding activity (binding probability): 61%
Substance: recombinant VE-cadherin-Fc (from UniProt P55284 46-599) (Fc fusion)
